# Reference: PMC9133088
# Experiments:
# [1] = lysosomal fractionation, glucose starvation; conditions: glycan lost; control: control siRNA
# [2] = immunoprecipitation and phospho-S720 immunoblot; conditions: glycan lost
# [3] = RagD GTP hydrolysis, GTP-agarose pulldown, glucose-starved cells; conditions: glycan lost; control: overexpressed WT LARS1
# [4] = lysosomal fractionation, leucine added without glucose; conditions: glycan lost; control: overexpressed WT LARS1
# [5] = lysosomal fractionation, knock-in cells, glucose starvation; conditions: glycan lost; control: WT SW620 cells
# [6] = LARS1 immunoprecipitation, immunoblot, knock-in cells; conditions: glycan lost; control: WT SW620 cells, glucose starvation
# [7] = near-UV circular dichroism; conditions: glycan lost; control: WT LARS1, same OGT1 condition
# [8] = in vitro GTPase assay, GTP-agarose pulldown; conditions: glycan lost; control: unmodified WT LARS1 with ATP and leucine
# [9] = control: control siRNA, glucose starvation
substance,measurement,setting,value
leucyl-tRNA synthetase 1 (LARS1): GFPT1 siRNA,localisation_or_trafficking,[1],increases
same,other: S720 phosphorylation by ULK1,[2]; [9],decreases
leucyl-tRNA synthetase 1 (LARS1): OGT1 siRNA,other: S720 phosphorylation by ULK1,[2]; [9],decreases
leucyl-tRNA synthetase 1 (LARS1): S1042A,enzymatic_activity,[3],increases
same,localisation_or_trafficking,[4],increases
same,other: S720 phosphorylation by ULK1,"[2]; control: overexpressed WT LARS1, glucose starvation",abolishes
leucyl-tRNA synthetase 1 (LARS1): S1042A knock-in,localisation_or_trafficking,[5],increases
same,other: S720 phosphorylation by ULK1,[6],decreases
leucyl-tRNA synthetase 1 (LARS1): S1042A with OGT1,structure_or_conformation,[7],changes
leucyl-tRNA synthetase 1 (LARS1): S1042A without OGT1,structure_or_conformation,[7],no change
leucyl-tRNA synthetase 1 (LARS1): S1042A ± OGT1,enzymatic_activity,[8],no change
